From paper PMC9352680, “A comprehensive thermodynamic model for RNA binding by the Saccharomyces cerevisiae Pumilio protein PUF4”
Substitutions are numbered along the chain they refer to. In names and notes the source's numbering stands.

T1: PUF4 RNA-binding domain (Saccharomyces cerevisiae, UniProt P25339 537-888)
T1 sequence: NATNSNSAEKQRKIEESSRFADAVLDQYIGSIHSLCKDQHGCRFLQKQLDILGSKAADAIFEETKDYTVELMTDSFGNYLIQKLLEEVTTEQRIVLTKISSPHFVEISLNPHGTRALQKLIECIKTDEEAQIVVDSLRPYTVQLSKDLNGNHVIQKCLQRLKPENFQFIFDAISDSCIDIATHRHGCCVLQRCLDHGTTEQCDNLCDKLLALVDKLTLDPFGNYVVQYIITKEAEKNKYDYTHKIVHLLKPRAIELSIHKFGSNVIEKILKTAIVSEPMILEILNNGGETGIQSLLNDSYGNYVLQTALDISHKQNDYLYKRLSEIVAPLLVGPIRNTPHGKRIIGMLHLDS

B1: Ib_S4_P4E.1_K4.1_C4.1_H4.1_[T3C]_A4.1_[T7C]_F4.1_T4.1 (ssRNA)
RNA: UUUGACAACUGAUCGUUCUUUCUUGCAUACUAUUCUUUCUCGAUCAGUUGUCUUU
B2: Ib_S4_P4E.1_K4.1_C4.1_H4.1_[T3C]_A4.1_[T7A]_F4.1_T4.1 (ssRNA)
RNA: B1 RNA with C30A
B3: Ib_S4_P4E.1_K4.1_C4.1_H4.1_[A4C]_A4.1_[T5A]_F4.1_T4.1 (ssRNA)
RNA: B1 RNA with C26U, A27C, U28A, C30U
B4: Ib_S4_P4E.1_K4.1_C4.1_H4.1_[A4T]_A4.1_[T5A]_F4.1_T4.1 (ssRNA)
RNA: B1 RNA with C26U, A27U, U28A, C30U
B5: Ib_S4_P4E.1_K4.1_C4.1_H4.1_[A4G]_A4.1_[A6G]_F4.1_T4.1 (ssRNA)
RNA: B1 RNA with C26U, A27G, A29G, C30U
B6: Ia_S4_P4E.1_K4.1_C4.1_H4.1_A4.1_F4.1_[A9G]_T4.1 (ssRNA)
RNA: B1 RNA with C26U, C30U, A32G
B7: Ib_S4_P4E.1_K4.1_C4.1_H4.1_[A4C]_A4.1_[A6G]_F4.1_T4.1 (ssRNA)
RNA: B1 RNA with C26U, A27C, A29G, C30U
B8: Ib_S4_P4E.1_K4.1_C4.1_H4.1_[A4C]_A4.1_[A6C]_F4.1_T4.1 (ssRNA)
RNA: B1 RNA with C26U, A27C, A29C, C30U
B9: Ib_S4_P4E.1_K4.1_C4.1_H4.1_[A4C]_A4.1_[A6T]_F4.1_T4.1 (ssRNA)
RNA: B1 RNA with C26U, A27C, A29U, C30U
B10: Ib_S4_P4E.1_K4.1_C4.1_H4.1_[A4T]_A4.1_[A6G]_F4.1_T4.1 (ssRNA)
RNA: B1 RNA with C26U, A27U, A29G, C30U
B11: Ib_S4_P4E.1_K4.1_C4.1_H4.1_[A4T]_A4.1_[A6C]_F4.1_T4.1 (ssRNA)
RNA: B1 RNA with C26U, A27U, A29C, C30U
B12: Ib_S4_P4E.1_K4.1_C4.1_H4.1_[A4C]_A4.1_[T7C]_F4.1_T4.1 (ssRNA)
RNA: B1 RNA with C26U, A27C
B13: Ib_S4_P4E.1_K4.1_C4.1_H4.1_[A4C]_A4.1_[T7A]_F4.1_T4.1 (ssRNA)
RNA: B1 RNA with C26U, A27C, C30A
B14: Ib_S4_P4E.1_K4.1_C4.1_H4.1_[A4T]_A4.1_[T7G]_F4.1_T4.1 (ssRNA)
RNA: B1 RNA with C26U, A27U, C30G
B15: Ib_S4_P4E.1_K4.1_C4.1_H4.1_[A4T]_A4.1_[T7C]_F4.1_T4.1 (ssRNA)
RNA: B1 RNA with C26U, A27U
B16: Ib_S4_P4E.1_K4.1_C4.1_H4.1_A4.1_[T5G]_[A6C]_F4.1_T4.1 (ssRNA)
RNA: B1 RNA with C26U, U28G, A29C, C30U
B17: Ia_S4_P4E.1_K4.1_C4.1_H4.1_[G2C]_A4.1_F4.1_T4.1 (ssRNA)
RNA: B1 RNA with G25C, C26U, C30U
B18: Ib_S4_P4E.1_K4.1_C4.1_H4.1_A4.1_[T5G]_[A6T]_F4.1_T4.1 (ssRNA)
RNA: B1 RNA with C26U, U28G, A29U, C30U
B19: Ib_S4_P4E.1_K4.1_C4.1_H4.1_A4.1_[T5C]_[A6T]_F4.1_T4.1 (ssRNA)
RNA: B1 RNA with C26U, U28C, A29U, C30U
B20: Ic_S4_P4E.1_K4.1_C4.1_H4.1_A4.1_[T5C]_[T7G]_F4.1_T4.1 (ssRNA)
RNA: B1 RNA with C26U, U28C, C30G
B21: Ic_S4_P4E.1_K4.1_C4.1_H4.1_A4.1_[T5C]_[T7A]_F4.1_T4.1 (ssRNA)
RNA: B1 RNA with C26U, U28C, C30A
B22: Ib_S4_P4E.1_K4.1_C4.1_H4.1_A4.1_[T5A]_[T7C]_F4.1_T4.1 (ssRNA)
RNA: B1 RNA with C26U, U28A
B23: Ib_S4_P4E.1_K4.1_C4.1_H4.1_A4.1_[A6C]_[T7G]_F4.1_T4.1 (ssRNA)
RNA: B1 RNA with C26U, A29C, C30G
B24: Ib_S4_P4E.1_K4.1_C4.1_H4.1_A4.1_[A6C]_[T7C]_F4.1_T4.1 (ssRNA)
RNA: B1 RNA with C26U, A29C
B25: Ib_S4_P4E.1_K4.1_C4.1_H4.1_A4.1_[A6C]_[T7A]_F4.1_T4.1 (ssRNA)
RNA: B1 RNA with C26U, A29C, C30A
B26: Ib_S4_P4E.1_K4.1_C4.1_H4.1_A4.1_[A6T]_[T7G]_F4.1_T4.1 (ssRNA)
RNA: B1 RNA with C26U, A29U, C30G
B27: Ic_S4_P4E.1_K4.1_C4.1_H4.1_A4.1_[A6T]_[T7C]_F4.1_T4.1 (ssRNA)
RNA: B1 RNA with C26U, A29U
B28: Ia_S4_P4E.1_K4.1_C4.1_H4.1_[G2T]_A4.1_F4.1_T4.1 (ssRNA)
RNA: B1 RNA with G25U, C26U, C30U
B29: Ib_S4_P4E.1_K4.1_C4.1_H4.1_A4.1_[A6T]_[T7A]_F4.1_T4.1 (ssRNA)
RNA: B1 RNA with C26U, A29U, C30A
B30: Ib_S4_P5E.1_K5.1_C5.1_H5.1_A5.1_F5.1_[T8G]_[A10G]_T5.1 (ssRNA)
RNA: UUUGACAACUGAUCGUUCUUUCUUGUAUUAGUGUUCUUUCUCGAUCAGUUGUCUUU
B31: Ib_S4_P5E.1_K5.1_C5.1_H5.1_A5.1_F5.1_[T8G]_[A10T]_T5.1 (ssRNA)
RNA: B30 RNA with G33U
B32: Ic_S4_P5E.1_K5.1_C5.1_H5.1_A5.1_F5.1_[T8C]_[A10G]_T5.1 (ssRNA)
RNA: B30 RNA with G31C
B33: Ib_S4_P5E.1_K5.1_C5.1_H5.1_A5.1_F5.1_[T8A]_[A10G]_T5.1 (ssRNA)
RNA: B30 RNA with G31A
B34: Ib_S4_P5E.1_K5.1_C5.1_H5.1_A5.1_F5.1_[T9G]_[A10C]_T5.1 (ssRNA)
RNA: B30 RNA with G31U, U32G, G33C
B35: Ic_S4_P5E.1_K5.1_C5.1_H5.1_A5.1_F5.1_[T9A]_[A10C]_T5.1 (ssRNA)
RNA: B30 RNA with G31U, U32A, G33C
B36: Ib_S4_P5E.1_K5.1_C5.1_H5.1_A5.1_F5.1_[T9A]_[A10T]_T5.1 (ssRNA)
RNA: B30 RNA with G31U, U32A, G33U
B37: Ib_S4_P5E.1_K5.1_C5.1_H5.1_[T1C]_A5.1_F5.1_[T8C]_T5.1 (ssRNA)
RNA: B30 RNA with U24C, G31C, G33A
B38: Ib_S4_P5E.1_K5.1_C5.1_H5.1_[T1C]_A5.1_F5.1_[T8A]_T5.1 (ssRNA)
RNA: B30 RNA with U24C, G31A, G33A
B39: Ia_S4_P4E.1_K4.1_C4.1_H4.1_[G2A]_A4.1_F4.1_T4.1 (ssRNA)
RNA: B1 RNA with G25A, C26U, C30U
B40: Ib_S4_P5E.1_K5.1_C5.1_H5.1_[G2A]_A5.1_F5.1_[T8G]_T5.1 (ssRNA)
RNA: B30 RNA with G25A, G33A
B41: Ib_S4_P5E.1_K5.1_C5.1_H5.1_[G2C]_A5.1_F5.1_[T8C]_T5.1 (ssRNA)
RNA: B30 RNA with G25C, G31C, G33A
B42: Ib_S4_P5E.1_K5.1_C5.1_H5.1_[G2A]_A5.1_F5.1_[T8A]_T5.1 (ssRNA)
RNA: B30 RNA with G25A, G31A, G33A
B43: Ib_S4_P5E.1_K5.1_C5.1_H5.1_[T3C]_A5.1_F5.1_[T8C]_T5.1 (ssRNA)
RNA: B30 RNA with U26C, G31C, G33A
B44: Ib_S4_P5E.1_K5.1_C5.1_H5.1_[T3C]_A5.1_F5.1_[T8A]_T5.1 (ssRNA)
RNA: B30 RNA with U26C, G31A, G33A
B45: Ib_S4_P5E.1_K5.1_C5.1_H5.1_[A4T]_A5.1_F5.1_[T8G]_T5.1 (ssRNA)
RNA: B30 RNA with A27U, G33A
B46: Ib_S4_P5E.1_K5.1_C5.1_H5.1_[A4G]_A5.1_F5.1_[T8C]_T5.1 (ssRNA)
RNA: B30 RNA with A27G, G31C, G33A
B47: Ib_S4_P5E.1_K5.1_C5.1_H5.1_[A4C]_A5.1_F5.1_[T8C]_T5.1 (ssRNA)
RNA: B30 RNA with A27C, G31C, G33A
B48: Ib_S4_P5E.1_K5.1_C5.1_H5.1_[A4C]_A5.1_F5.1_[T8A]_T5.1 (ssRNA)
RNA: B30 RNA with A27C, G31A, G33A
B49: Ib_S4_P5E.1_K5.1_C5.1_H5.1_[T1G]_A5.1_F5.1_[T9A]_T5.1 (ssRNA)
RNA: B30 RNA with U24G, G31U, U32A, G33A
B50: Ia_S4_P4E.1_K4.1_C4.1_H4.1_[T3C]_A4.1_F4.1_T4.1 (ssRNA)
RNA: B1 RNA with C30U
B51: Ib_S4_P5E.1_K5.1_C5.1_H5.1_[A4C]_A5.1_F5.1_[T9A]_T5.1 (ssRNA)
RNA: B30 RNA with A27C, G31U, U32A, G33A
B52: Ib_S4_P5E.1_K5.1_C5.1_H5.1_[A4T]_A5.1_F5.1_[T9A]_T5.1 (ssRNA)
RNA: B30 RNA with A27U, G31U, U32A, G33A
B53: Ib_S4_P5E.1_K5.1_C5.1_H5.1_[T1C]_A5.1_F5.1_[A10C]_T5.1 (ssRNA)
RNA: B30 RNA with U24C, G31U, G33C
B54: Ib_S4_P5E.1_K5.1_C5.1_H5.1_[G2A]_A5.1_F5.1_[A10T]_T5.1 (ssRNA)
RNA: B30 RNA with G25A, G31U, G33U
B55: Ib_S4_P5E.1_K5.1_C5.1_H5.1_[T3C]_A5.1_F5.1_[A10C]_T5.1 (ssRNA)
RNA: B30 RNA with U26C, G31U, G33C
B56: Ib_S4_P5E.1_K5.1_C5.1_H5.1_[A4G]_A5.1_F5.1_[A10C]_T5.1 (ssRNA)
RNA: B30 RNA with A27G, G31U, G33C
B57: Ib_S4_P5E.1_K5.1_C5.1_H5.1_[A4C]_A5.1_F5.1_[A10C]_T5.1 (ssRNA)
RNA: B30 RNA with A27C, G31U, G33C

Biological target: T1, PUF4 RNA-binding domain
Assay: Mg; RNA-MaP; 20 mM Na-HEPES pH 7.4, 30 mM KOAc, 0.75 mM MgCl2, 0.1% Tween-20, 5% glycerol, 0.1 mg/mL BSA, 2 mM DTT; 25 C; 0.0125-409.6 nM protein
Conditions: tags: N-His6-TEV cleaved; C-SNAP kept, Cy3B-labelled; label: tethered on chip by stalled RNA polymerase

Row | Binder | Kd [nM]
1 | B1 | 48.1
2 | B2 | 215
3 | B3 | 48.4
4 | B4 | 13.4
5 | B5 | 10.8
6 | UCUCUUUGUCUAUAUCUCUU (ssRNA) [Ia_S1_P3E.1_K3.1_C3.1_H3.1_[A4C]_A3.1_F3.1_T3.1] | 1170
7 | B6 | 3.07
8 | B7 | 191
9 | B8 | 110
10 | B9 | 29.8
11 | B10 | 64.1
12 | B11 | 54.8
13 | B12 | 12.9
14 | B13 | 19
15 | B14 | 30.9
16 | B15 | 7.04
17 | B16 | 4.82
18 | B17 | 227
19 | B18 | 5.58
20 | B19 | 1.04

Row | Binder | Kd [nM]
21 | B20 | 1.45
22 | B21 | 0.996
23 | B22 | 2.55
24 | B23 | 14.5
25 | B24 | 3.08
26 | B25 | 0.977
27 | B26 | 5.79
28 | B27 | 2.33
29 | B28 | 253
30 | B29 | 1.36
31 | B30 | 488
32 | B31 | 393
33 | B32 | 50.3
34 | B33 | 36.4
35 | B34 | 37
36 | B35 | 7.38
37 | B36 | 1.18
38 | B37 | 688
39 | B38 | 964
40 | B39 | 10.3

Row | Binder | Kd [nM]
41 | B40 | 628
42 | B41 | > 2300
43 | B42 | 598
44 | B43 | 478
45 | B44 | 1010
46 | B45 | 107
47 | B46 | 28.4
48 | B47 | 35.7
49 | B48 | 26.8
50 | B49 | 1300
51 | B50 | 21
52 | B51 | 57.1
53 | B52 | 33.2
54 | B53 | > 2300
55 | B54 | 259
56 | B55 | 1790
57 | B56 | 105
58 | B57 | 493
